Read-outs that look alike come from different tables or passages of the source.
Legend:
[1] = molecular target: T1, Flag/His-tagged recombinant human DNMT1 protein (human, UniProt P26358 1-1616); assay: co-IP
[2] = molecular target: T1, Flag/His-tagged recombinant human DNMT1 …; assay: co-IP; remark: listed apart in the source

T1 sequence (P26358 whole entry): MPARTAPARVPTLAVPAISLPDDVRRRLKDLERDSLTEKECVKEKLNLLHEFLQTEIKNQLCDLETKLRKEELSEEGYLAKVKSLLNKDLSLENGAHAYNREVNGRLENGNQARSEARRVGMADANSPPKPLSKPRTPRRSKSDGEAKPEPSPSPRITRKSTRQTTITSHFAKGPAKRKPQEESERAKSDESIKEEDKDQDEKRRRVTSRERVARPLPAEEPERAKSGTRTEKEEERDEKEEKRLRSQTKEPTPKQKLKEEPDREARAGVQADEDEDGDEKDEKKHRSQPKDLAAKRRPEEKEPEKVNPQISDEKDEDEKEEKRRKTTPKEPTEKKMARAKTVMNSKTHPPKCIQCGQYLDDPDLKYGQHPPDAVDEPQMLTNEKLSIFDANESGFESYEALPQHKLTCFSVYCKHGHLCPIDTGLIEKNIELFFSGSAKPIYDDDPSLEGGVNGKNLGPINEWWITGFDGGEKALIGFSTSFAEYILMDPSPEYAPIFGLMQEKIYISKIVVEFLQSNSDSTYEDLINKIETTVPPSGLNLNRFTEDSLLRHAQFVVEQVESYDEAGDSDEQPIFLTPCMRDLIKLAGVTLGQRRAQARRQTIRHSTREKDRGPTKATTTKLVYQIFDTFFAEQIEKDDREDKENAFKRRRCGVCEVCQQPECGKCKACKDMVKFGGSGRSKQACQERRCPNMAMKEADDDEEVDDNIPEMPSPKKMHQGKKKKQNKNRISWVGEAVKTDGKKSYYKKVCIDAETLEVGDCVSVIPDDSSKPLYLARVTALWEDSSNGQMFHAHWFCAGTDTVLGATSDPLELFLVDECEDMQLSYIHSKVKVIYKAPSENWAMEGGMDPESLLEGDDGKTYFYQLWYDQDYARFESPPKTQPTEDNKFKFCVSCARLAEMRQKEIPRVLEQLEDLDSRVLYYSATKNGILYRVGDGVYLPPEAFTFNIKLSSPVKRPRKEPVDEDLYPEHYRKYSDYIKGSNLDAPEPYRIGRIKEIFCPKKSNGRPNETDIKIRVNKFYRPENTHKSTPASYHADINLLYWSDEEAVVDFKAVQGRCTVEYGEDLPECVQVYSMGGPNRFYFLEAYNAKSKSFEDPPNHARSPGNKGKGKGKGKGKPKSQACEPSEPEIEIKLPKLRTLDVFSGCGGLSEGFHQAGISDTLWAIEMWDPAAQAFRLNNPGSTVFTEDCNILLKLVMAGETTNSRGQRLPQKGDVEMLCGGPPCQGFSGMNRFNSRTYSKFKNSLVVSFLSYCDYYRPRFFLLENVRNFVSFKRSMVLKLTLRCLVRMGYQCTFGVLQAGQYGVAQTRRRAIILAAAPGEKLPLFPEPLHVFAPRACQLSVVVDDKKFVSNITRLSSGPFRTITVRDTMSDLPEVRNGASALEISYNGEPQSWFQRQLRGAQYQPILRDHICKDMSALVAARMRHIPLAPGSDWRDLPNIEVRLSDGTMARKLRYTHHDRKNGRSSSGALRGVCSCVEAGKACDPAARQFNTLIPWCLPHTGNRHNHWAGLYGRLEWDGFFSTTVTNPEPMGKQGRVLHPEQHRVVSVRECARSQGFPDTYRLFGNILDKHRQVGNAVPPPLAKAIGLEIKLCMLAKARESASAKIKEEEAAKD

| binding result [1] | binding result [2] | Binder |
| --- | --- | --- |
| binds | – | Human Recombinant GST-METTL14 (natural protein, UniProt Q9HCE5 1-456, looked up) MDSRLQEIRERQKLRRQLLAQQLGAESADSIGAVLNSKDEQREIAETRETCRASYDTSAPNAKRKYLDEGETDEDKMEEYKDELEMQQDEENLPYEEEIYKDSSTFLKGTQSLNPHNDYCQHFVDTGHRPQNFIRDVGLADRFEEYPKLRELIRLKDELIAKSNTPPMYLQADIEAFDIRELTPKFDVILLEPPLEEYYRETGITANEKCWTWDDIMKLEIDEIAAPRSFIFLWCGSGEGLDLGRVCLRKWGYRRCEDICWIKTNKNNPGKTKTLDPKAVFQRTKEHCLMGIKGTVKRSTDGDFIHANVDIDLIITEEPEIGNIEKPVEIFHIIEHFCLGRRRLHLFGRDSTIRPGWLTVGPTLTNSNYNAETYASYFSAPNSYLTGCTEEIERLRPKSPPPKSKSDRGGGAPRGGGRGGTSAGRGRERNRSNFRGERGGFRGGRGGAHRGGFPPR |
| – | binds | Flag-tagged recombinant human METTL14 protein (natural protein, UniProt Q9HCE5 1-456, looked up) MDSRLQEIRERQKLRRQLLAQQLGAESADSIGAVLNSKDEQREIAETRETCRASYDTSAPNAKRKYLDEGETDEDKMEEYKDELEMQQDEENLPYEEEIYKDSSTFLKGTQSLNPHNDYCQHFVDTGHRPQNFIRDVGLADRFEEYPKLRELIRLKDELIAKSNTPPMYLQADIEAFDIRELTPKFDVILLEPPLEEYYRETGITANEKCWTWDDIMKLEIDEIAAPRSFIFLWCGSGEGLDLGRVCLRKWGYRRCEDICWIKTNKNNPGKTKTLDPKAVFQRTKEHCLMGIKGTVKRSTDGDFIHANVDIDLIITEEPEIGNIEKPVEIFHIIEHFCLGRRRLHLFGRDSTIRPGWLTVGPTLTNSNYNAETYASYFSAPNSYLTGCTEEIERLRPKSPPPKSKSDRGGGAPRGGGRGGTSAGRGRERNRSNFRGERGGFRGGRGGAHRGGFPPR |

From paper PMC12160003 (Cell, 2025)
